For the assay, the target named is HLA-A*02:01 (Homo sapiens, UniProt P04439, D140Y/D185E/D98H/E176V/E277Q/G131W/G231S/I119V/I121R/I166T/I218V/L300P/L318F/N151K/N90K/P208A/P217A/Q86G/Q94H/R138H/R169H/T345S). The assay can be described thus: MHC binding assay (UV-ligand exchange, β2m ELISA, peptide exchange yield). As to conditions: MHC class I binding score; binding to HLA-A*02:01 ranged by peptide exchange yield (UV-ligand exchange, β2m ELISA). The procedure, abridged:
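Binding is expressed as peptide exchange yield: stabilized MHC complexes were quantified by β2m ELISA, with a 450 nm TMB read-out on streptavidin-coated plates. Complexes came from UV-ligand exchange, where UV irradiation cleaves a photolabile peptide so the candidate peptide can load.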

In the case of “122 (FLLAEDDIYL; listed as Homo sapiens) [compound 122]”, the Peptide exchange result is “″+++″ (≧50% = +++)”.
As for “374 (FLLQQHLISA; listed as Homo sapiens) [compound 374]”, the Peptide exchange result is reported as “″++″ (≧20% = ++)”.
Turning to “186 (TLFFQQNAL; listed as Homo sapiens) [compound 186]”, the Peptide exchange result is “″++″ (≧20% = ++)”.
For “82 (FLSSVTYNL; listed as Homo sapiens) [compound 82]”, the Peptide exchange result is given as “″+++″ (≧50% = +++)”.
For the substance “394 (LLAVIGGLVYL; listed as Homo sapiens) [compound 394]”, the Peptide exchange entry is given as “″+++″ (≧50% = +++)”.
Then “386 (ILFRYPLTI; listed as Homo sapiens) [compound 386]”, with “″+++″ (≧50% = +++)”; and “200 (LLFGSVQEV; listed as Homo sapiens) [compound 200]”, with “″+++″ (≧50% = +++)”; and “554 (LLMPSSEDLLL; listed as Homo sapiens) [compound 554]”, with “″+++″ (≧50% = +++)”.
Turning to “87 (ALPEAPAPLLPHIT; listed as Homo sapiens) [compound 87]”, the Peptide exchange result is recorded as “″++″ (≧20% = ++)”.
With “377 (FLLDSSASV; listed as Homo sapiens) [compound 377]”, the Peptide exchange entry is given as “″++″ (≧20% = ++)”.
Under “573 (ILVANAIVGV; listed as Homo sapiens) [compound 573]” stands “″+++″ (≧50% = +++)”; under “618 (VLFDSESIGIYV; listed as Homo sapiens) [compound 618]”, “″+++″ (≧50% = +++)”.
Under “93 (LLQAIKLYL; listed as Homo sapiens) [compound 93]” stands “″++″ (≧20% = ++)”; under “256 (FLPPEHTIVYI; listed as Homo sapiens) [compound 256]”, “″+++″ (≧50% = +++)”.
Consider “39 (SVAPNLPAV; listed as Homo sapiens) [compound 39]”, for which the Peptide exchange result was “″+++″ (≧50% = +++)”.
With “136 (YLADPSNLFVV; listed as Homo sapiens) [compound 136]”, the Peptide exchange result is given as “″+++″ (≧50% = +++)”.
Under “485 (NVPDSFNEV; listed as Homo sapiens) [compound 485]” stands “″+++″ (≧50% = +++)”.
On to “134 (YLQELIFSV; listed as Homo sapiens) [compound 134]”, for which the Peptide exchange entry is recorded as “″+++″ (≧50% = +++)”.
For “155 (RVANLHFPSV; listed as Homo sapiens) [compound 155]”, the Peptide exchange entry is reported as “″+++″ (≧50% = +++)”.
Then “369 (GLFPEHLIDV; listed as Homo sapiens) [compound 369]”, with “″+++″ (≧50% = +++)”; and “547 (TLDITPHTV; listed as Homo sapiens) [compound 547]”, with “″+++″ (≧50% = +++)”; and “236 (GLLEAKVSL; listed as Homo sapiens) [compound 236]”, with “″+++″ (≧50% = +++)”.
Then “357 (SMHDLVLQV; listed as Homo sapiens) [compound 357]”, with “″+++″ (≧50% = +++)”.
As to “180 (FQIDPHSGLVTV; listed as Homo sapiens) [compound 180]”, the Peptide exchange entry was “″++″ (≧20% = ++)”.
Under “251 (ALYTGFSILV; listed as Homo sapiens) [compound 251]” stands “″++″ (≧20% = ++)”.
Under “506 (KLLGKVETA; listed as Homo sapiens) [compound 506]” stands “″+++″ (≧50% = +++)”; under “438 (KLLPLAGLYL; listed as Homo sapiens) [compound 438]”, “″++++″ (≧75% = ++++)”.
Under “284 (ILLSQTTGV; listed as Homo sapiens) [compound 284]” stands “″+++″ (≧50% = +++)”; under “95 (SVIPQIQKV; listed as Homo sapiens) [compound 95]”, “″+++″ (≧50% = +++)”; under “81 (FLFSQLQYL; listed as Homo sapiens) [compound 81]”, “″++″ (≧20% = ++)”.
Consider “285 (QLLHVGVTV; listed as Homo sapiens) [compound 285]”, for which the Peptide exchange entry is reported as “″+++″ (≧50% = +++)”.
As for “439 (YLLQEIYGI; listed as Homo sapiens) [compound 439]”, the Peptide exchange result was “″+++″ (≧50% = +++)”.
Take “168 (KILDADIQL; listed as Homo sapiens) [compound 168]”: the Peptide exchange entry was “″++++″ (≧75% = ++++)”.
Under “594 (IMLKGDNITL; listed as Homo sapiens) [compound 594]” stands “″+++″ (≧50% = +++)”; under “577 (VMFEDGVLMRL; listed as Homo sapiens) [compound 577]”, “″+++″ (≧50% = +++)”; under “276 (ALFTFSPLTV; listed as Homo sapiens) [compound 276]”, “″+++″ (≧50% = +++)”.
Take “27 (ILADIVISA; listed as Homo sapiens) [compound 27]”: the Peptide exchange result is reported as “″+++″ (≧50% = +++)”.
In the case of “397 (YLFGERLLEC; listed as Homo sapiens) [compound 397]”, the Peptide exchange result is given as “″+++″ (≧50% = +++)”.
For the substance “286 (YLFPGIPEL; listed as Homo sapiens) [compound 286]”, the Peptide exchange entry is recorded as “″+++″ (≧50% = +++)”.
Then “503 (SLNHFTHSV; listed as Homo sapiens) [compound 503]”, with “″+++″ (≧50% = +++)”; and “459 (ALITEVVRL; listed as Homo sapiens) [compound 459]”, with “″++″ (≧20% = ++)”; and “609 (ALWKQLLEL; listed as Homo sapiens) [compound 609]”, with “″+++″ (≧50% = +++)”.
Turning to “402 (VLFSGALLGL; listed as Homo sapiens) [compound 402]”, the Peptide exchange result was “″++″ (≧20% = ++)”.
On to “427 (ALLPLSPYL; listed as Homo sapiens) [compound 427]”, for which the Peptide exchange entry is recorded as “″+++″ (≧50% = +++)”.
“437 (SMAPGLVIQAV; listed as Homo sapiens) [compound 437]”: the Peptide exchange result is “″+++″ (≧50% = +++)”.
Under “103 (TLAEEVVAL; listed as Homo sapiens) [compound 103]” stands “″+++″ (≧50% = +++)”; under “595 (VLLSIYPRV; listed as Homo sapiens) [compound 595]”, “″+++″ (≧50% = +++)”; under “526 (RLAEVGQYEQV; listed as Homo sapiens) [compound 526]”, “″++″ (≧20% = ++)”.
As to “68 (SLMELPRGLFL; listed as Homo sapiens) [compound 68]”, the Peptide exchange entry is recorded as “″++++″ (≧75% = ++++)”.
Then “135 (ALSEVDFQL; listed as Homo sapiens) [compound 135]”, with “″+++″ (≧50% = +++)”.
Then “510 (KLYSVVSQL; listed as Homo sapiens) [compound 510]”, with “″++″ (≧20% = ++)”.
Regarding “349 (SLTEYLQNV; listed as Homo sapiens) [compound 349]”, the Peptide exchange result is “″++++″ (≧75% = ++++)”.
Then “223 (ALLENIALYL; listed as Homo sapiens) [compound 223]”, with “″+++″ (≧50% = +++)”.
Then “600 (ALAAPDIVPAL; listed as Homo sapiens) [compound 600]”, with “″+++″ (≧50% = +++)”.
Consider “100 (YLLSTNAQL; listed as Homo sapiens) [compound 100]”, for which the Peptide exchange entry is recorded as “″++++″ (≧75% = ++++)”.
Then “333 (FLPDANSSV; listed as Homo sapiens) [compound 333]”, with “″++″ (≧20% = ++)”; and “529 (LLADELITV; listed as Homo sapiens) [compound 529]”, with “″+++″ (≧50% = +++)”; and “478 (YLLHEKLNL; listed as Homo sapiens) [compound 478]”, with “″+++″ (≧50% = +++)”.
Then “43 (VLSSLEINI; listed as Homo sapiens) [compound 43]”, with “″++″ (≧20% = ++)”; and “306 (ALVNVQIPL; listed as Homo sapiens) [compound 306]”, with “″+++″ (≧50% = +++)”; and “316 (ILLERLWYV; listed as Homo sapiens) [compound 316]”, with “″+++″ (≧50% = +++)”.
Then “351 (SLIPNLRNV; listed as Homo sapiens) [compound 351]”, with “″+++″ (≧50% = +++)”.
With “288 (NLINEINGV; listed as Homo sapiens) [compound 288]”, the Peptide exchange entry is given as “″+++″ (≧50% = +++)”.
Under “538 (LLLAHIIAL; listed as Homo sapiens) [compound 538]” stands “″++″ (≧20% = ++)”.
Regarding “400 (SLLTEQDLWTV; listed as Homo sapiens) [compound 400]”, the Peptide exchange entry is on record as “″++″ (≧20% = ++)”.
Turning to “346 (LLDSKVPSV; listed as Homo sapiens) [compound 346]”, the Peptide exchange result is on record as “″+++″ (≧50% = +++)”.
As for “336 (ILLTAIVQV; listed as Homo sapiens) [compound 336]”, the Peptide exchange result was “″+++″ (≧50% = +++)”.
As to “57 (TLAELQPPVQL; listed as Homo sapiens) [compound 57]”, the Peptide exchange result is reported as “″+++″ (≧50% = +++)”.
With “128 (YLFDDPLSAV; listed as Homo sapiens) [compound 128]”, the Peptide exchange result is on record as “″++″ (≧20% = ++)”.
For the substance “55 (SLLDLETLSL; listed as Homo sapiens) [compound 55]”, the Peptide exchange entry is given as “″++++″ (≧75% = ++++)”.

The record behind these values is patent US20170037111A1, “Novel peptides and combination of peptides for use in immunotherapy against ovarian cancer and other cancers” (immatics biotechnologies GmbH, priority 2015, published 2017).
